The text below walks through data of patent US20220332804A1 (CSL INNOVATION, published 2022).

Residue numbers refer to the chain shown, from its start.

Holding throughout (test): SPR, KD relative to WT C2;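 note: biacore SPR at 37 °C, anti-C2 mAbs captured via immobilised goat anti-human IgG, C2 alanine or serine surface mutants as analytes, 1:1 model fitted, double-referenced sensograms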
For orientation: In SPR one partner is held on a chip, and binding of the other changes the refractive index at the surface.

For one assay, the target named is T1, human C2 V722A (human, UniProt P06681 21-752).
T1 sequence: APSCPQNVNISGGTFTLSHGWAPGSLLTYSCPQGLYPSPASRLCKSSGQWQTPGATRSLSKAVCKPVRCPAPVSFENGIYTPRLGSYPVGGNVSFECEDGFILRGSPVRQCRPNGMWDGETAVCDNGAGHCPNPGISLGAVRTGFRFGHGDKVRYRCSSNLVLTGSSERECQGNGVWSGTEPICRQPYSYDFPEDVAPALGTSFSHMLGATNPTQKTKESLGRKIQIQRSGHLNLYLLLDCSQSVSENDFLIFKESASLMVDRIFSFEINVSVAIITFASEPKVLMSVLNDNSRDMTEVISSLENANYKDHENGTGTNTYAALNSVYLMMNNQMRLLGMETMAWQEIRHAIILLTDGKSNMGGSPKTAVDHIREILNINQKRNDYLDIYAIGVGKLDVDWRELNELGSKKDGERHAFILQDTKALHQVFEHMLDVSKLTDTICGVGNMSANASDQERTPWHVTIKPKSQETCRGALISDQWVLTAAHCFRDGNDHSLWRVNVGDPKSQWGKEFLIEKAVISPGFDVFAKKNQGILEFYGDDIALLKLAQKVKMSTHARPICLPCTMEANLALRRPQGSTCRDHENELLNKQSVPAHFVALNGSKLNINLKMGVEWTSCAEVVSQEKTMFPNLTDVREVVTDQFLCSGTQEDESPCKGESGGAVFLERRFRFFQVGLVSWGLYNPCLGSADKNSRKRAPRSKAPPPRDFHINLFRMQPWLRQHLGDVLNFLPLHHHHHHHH

For another assay, the target named is T2, human C2 S428A (human, UniProt P06681 21-752).
T2 sequence: T1 sequence with S408A, A702V

A further assay has as its target T3, human C2 E433A (human, UniProt P06681 21-752).
T3 sequence: T1 sequence with E413A, A702V

For the next assay, the target named is T4, human C2 E267A (human, UniProt P06681 21-752).
T4 sequence: T1 sequence with E247A, A702V

B1: RF16-226 (antibody, human IgG4 S228P, lambda)
heavy: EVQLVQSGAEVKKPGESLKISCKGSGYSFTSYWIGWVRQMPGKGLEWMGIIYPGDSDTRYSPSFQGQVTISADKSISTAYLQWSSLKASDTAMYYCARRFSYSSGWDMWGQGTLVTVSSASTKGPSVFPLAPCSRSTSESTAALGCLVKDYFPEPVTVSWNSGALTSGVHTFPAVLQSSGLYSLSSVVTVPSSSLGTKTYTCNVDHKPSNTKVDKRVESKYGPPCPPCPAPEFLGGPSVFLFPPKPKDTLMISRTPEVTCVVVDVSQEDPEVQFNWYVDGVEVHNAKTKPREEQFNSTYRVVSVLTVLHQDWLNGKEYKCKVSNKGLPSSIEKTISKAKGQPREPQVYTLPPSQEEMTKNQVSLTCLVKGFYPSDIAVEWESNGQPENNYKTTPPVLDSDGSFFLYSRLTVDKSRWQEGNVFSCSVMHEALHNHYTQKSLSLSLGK
light: SYELTQPPSVSVSPGQTARITCSGDALTSKYVAWYQQKSGLAPLLVIYEDTRRPSGIPAKFSGSSSGSVATLTISGAHGDDEADYYCYSTDASGHQRVFGGGTKLTVLSQPKAAPSVTLFPPSSEELQANKATLVCLISDFYPGAVTVAWKADGSPVKAGVETTKPSKQSNNKYAASSYLSLTPEQWKSHRSYSCQVTHEGSTVEKTVAPTECS
notes: pH-dependent anti-C2 antibody from a phage display library; also called WT
Regarding B1, the Fold diff came to 10 fold in the assay with human C2 V722A, 2 fold in the assay with human C2 S428A, 0 fold with human C2 E433A and 1 fold with human C2 E267A.
